What was measured:
[1] = molecular target: T1, IL-10Rα ECD, from Expi-293 cells (for structural studies) (human, UniProt Q13651 20-235); assay: SEC
T1 sequence (looked up): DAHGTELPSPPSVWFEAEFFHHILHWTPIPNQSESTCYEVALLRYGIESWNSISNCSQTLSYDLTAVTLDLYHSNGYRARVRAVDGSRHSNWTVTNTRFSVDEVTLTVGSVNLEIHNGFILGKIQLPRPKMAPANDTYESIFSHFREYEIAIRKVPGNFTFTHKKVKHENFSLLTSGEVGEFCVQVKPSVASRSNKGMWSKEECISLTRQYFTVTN

cryo-EM structure = molecular target: the molecule itself; assay: cryo-EM structure

binding result [1]: binds
B1: Affinity matured IL-10 (super-10, clone 5.1), soluble (ligand, UniProt P22301 19-178, looked up)
chain: SPGQGTQSENSCTHFPGYLPNMLRDLRDAFSRVKTFFQMKDQLDNLLLKESLLEDFKGYLGCQALSEMIQFYLEEVMPQAENQDPDIKAHVQSLGENLKDLRLWLRRCHRFLPCENKSKAVEQVKNAFNKLQEKGIYKAMSEFDIFINYIEAYMTMKIRN
binding result (cryo-EM structure): binds

Reference: paper PMC9132103 (Science (New York, N.Y.), 2021)
